From the Human Domainome abundance scans (Beltran et al. 2025)

B1: Histidine--tRNA ligase, cytoplasmic, residues 8 to 45; numbered along this chain, P12081 (parent)
chain: EELVKLQGERVRGLKQQKASAELIEEEVAKLLKLKAQL

Variants of: B1
Experiment: abundance fitness (aPCA) (normalised: wild type 0, dead -1); higher = more abundant; growth selection in yeast, the domain comes from the species named
Settings: Homo sapiens

Abundance fitness, by site and new letter:
S20: Q -0.057, C -0.09, N 0.026, T -0.132, H -0.128, M -0.431, F -1.09, L -0.781, D 0.038, Y -0.945, W -1.1, V -0.693, K -0.118, E 0.068, G -0.022, R -0.019
V11: C -1.51, M -0.106, R -0.03, N -0.334, Y -0.552, I -0.011, G -0.121, F -0.571, L -0.189, K -0.255, W -0.374, Q 0.011, H -0.209, T -0.127, S -0.238, A -0.169, E 0.055, P -0.01
L6: P -0.211, Q 0.213, R 0.051, V 0.054, G -0.171, H 0.051, I -0.428, Y -0.261, E 0.128, C -0.436, K 0.155, F -0.102, M 0.1, S -0.136, A 0.194, N -0.017
Q7: W -1.15, L -0.515, H -0.507, Y -0.706, C -0.616, D -0.492, V -0.379, G -0.619, F -0.73, P -0.595, I -0.526, N -0.485, A -0.348, S -0.433, M -0.452, K -0.693, T -0.357, E -1.63, R -0.649
K15: D -0.271, H -0.127, A -0.107, E 0.187, T 0.001, C -0.27, R -0.1, M 0.149, Q 0.061, N -0.135, I 0.017, S -0.184, V -0.103, F -0.164, G -0.274, W -0.412, Y -0.41, L -0.13
R10: V 0.039, T 0.013, H -0.131, L -0.026, G -0.229, C -0.379, Y -0.125, S -0.213, F -0.288, E -0.044, N -0.198, P 0.053, M -0.06, I -0.035, K 0.245, D -0.084, W -0.887, Q -0.097
K5: A -0.234, V -0.611, E -0.026, P -0.54, I -0.436, W -0.383, M -0.143, S -0.531, L -0.394, F -0.443, R -0.269, Q -0.019, C -0.531, H -0.223, G -0.407, Y -0.27
E22: A 0.069, D 0.04, F -0.311, C -0.107
Q16: I -0.227, L -0.057, C -0.288, Y -0.427, H -0.134, E 0.132, D 0.083, K -0.004, F -0.397, M 0.028, G -0.242, T -0.08, S -0.004, V -0.039, W -0.483, R -0.11, N 0.076, A 0.144, P -0.223
E2: Y -0.452
A19: R -0.255, C -0.034, L -0.504, Q -0.173, M -0.039, K -0.264, I -0.538, G -0.27, T -0.174, D -0.285, F -0.384, N -0.406, W -0.424, S -0.21, P -0.145, E -0.17, Y -0.612
G8: Y -0.285, E 0.44, D 0.054, V 0.085, N -0.075, C -1.04, P -0.25, F -0.287, W -0.452, R -0.04, S 0.074, A 0.101, H -0.409, T 0.217, K 0.377, I 0.086, M 0.106, L -0.002, Q 0.194
A21: K 0.055, W -0.49, S 0.072, Q 0.039, M 0.116, V -0.161, I -0.101, N 0.119, H -0.004, L -0.058, T -0.006, P 0.184, C -0.202, R -0.086, F -0.075, Y -0.208, E 0.085, D 0.13, G -0.151
L3: W -1.54, A -0.162, N -0.287, E 0.203, F -0.341, Q 0.153, H -0.362, S -0.066, V -0.366, P -0.729, G -0.45, I -0.086, M 0.156, D -0.454, R -0.258, K -0.088, Y -0.549, T -0.024, C -0.896
R12: Q 0.101, W -0.018, G 0.096, E 0.231, L -0.034, V -0.008, T 0.05, S 0.098, A 0.218, D 0.122, M -0.216, H 0.005, F -0.172, N -0.022, I -0.077
V4: H -0.463, I -0.013, F -0.109, D -0.01, R -0.544, W -0.468, Q -0.563, G -0.227, S -0.264, K -0.568, N -0.139, E -0.139, P -0.658, Y 0.077, C -0.46, T -0.19, L -0.201, M -0.079
Q17: H -0.446, V -0.258, L -0.232, F -0.396, S 0.055, P -0.369, G -0.071, I -0.388, D -0.11, W -0.5, M 0.052, R -0.196
G13: D 0.079, W 0.055, H 0.079, F 0.079, V 0.198, Y -0.136, S 0.154, L 0.197, M 0.324, A 0.23, N 0.307, P -0.237, R 0.005, I 0.188, C 0.271, K 0.168, T 0.218, Q 0.253
E9: F -0.684, N 0.035, W -0.726, D -0.001, R -0.464, K -0.324, Y -0.816, S -0.291, A -0.186, V -0.653, C -0.5, I -0.716, L -0.466, H -0.699, Q -0.379, P -0.631, G -0.357, T -0.246, M -0.232
K18: M 0.067, P 0.004, H 0.239, R -0.06, T -0.083, Q 0.066, G 0.172, V -0.236, C -0.112, D 0.221, I -0.375, F -0.45, W -0.619, Y -0.342, A 0.047
L14: E 0.053, Q -0.173, A 0.064, S -0.101, P -0.248, W -0.467, D -0.24, I -0.263, R -0.332, G -0.184, C -0.119, Y -0.458, H -0.397, N -0.479, F -0.4, M 0.053, K -0.209, T -0.334
